2 molecules from article PMC13036084, “Cryo-EM structure of Chlamydomonas reinhardtii Photosystem I complexed with cytochrome c6” (Nature Communications, 2026) can be followed below.

The assay addresses T1, PSAF subunit of Chlamydomonas reinhardtii Photosystem I (Chlamydomonas reinhardtii, UniProt P12356 63-227).
T1 construct: PSAF, Photosystem I subunit, Chlamydomonas reinhardtii; the transit peptide segment is included in the numbering of the PDB data; numbers count on: the mature protein; Stood in the experiment as a subunit of the PSI complex m2
T1 sequence (looked up): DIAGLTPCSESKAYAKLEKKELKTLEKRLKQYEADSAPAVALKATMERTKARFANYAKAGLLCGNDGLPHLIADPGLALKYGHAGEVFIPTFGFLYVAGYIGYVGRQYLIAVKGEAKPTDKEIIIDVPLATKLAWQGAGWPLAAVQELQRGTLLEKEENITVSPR
Nature of the assay: cross-linking; non-activated Cyt c6 (4 μM) and PSI (40 μg Chl/mL) in 30 mM HEPES/KOH pH 7.5, 1 mM ascorbate, 0.1 mM DAD, 3 mM MgCl2, 0.03% α-DDM with 5 mM EDC and 10 mM sulfo-NHS, 45 min, room temperature, dark; quenched with 50 mM Tris pH 8.0; SDS-PAGE and Western blot with anti-Cyt c6. The following applies: both partners purified. In general terms: Immunoblotting shows a protein as a band on a membrane.

B1: Chlamydomonas reinhardtii cytochrome c6 E69Q/E70Q (natural protein)
chain: ADLALGAQVFNGNCAACHMGGRNSVMPEKTLDKAALEQYLDGGFKVESIIYQVENGKGAMPAWADRLSQQEIQAVAEYVFKQATDAAWKY
modifications: heme group (heme protein)
notes: cytochrome c6, Chlamydomonas reinhardtii; also called Cyt c6 (E69Q/E70Q); E69Q/E70Q double mutant; source: E. coli BL21, co-transformed with pEC86 (Ccm genes), purified (DEAE anion exchange, size exclusion)
On to B1, for which the binding result was “binds”.

B2: Chlamydomonas reinhardtii cytochrome c6 E71Q (natural protein)
chain: ADLALGAQVFNGNCAACHMGGRNSVMPEKTLDKAALEQYLDGGFKVESIIYQVENGKGAMPAWADRLSEEQIQAVAEYVFKQATDAAWKY
modifications: heme group (heme protein)
notes: cytochrome c6, Chlamydomonas reinhardtii; also called Cyt c6 (E71Q); source: E. coli BL21, co-transformed with pEC86 (Ccm genes), purified (DEAE anion exchange, size exclusion)
For the molecule B2, the binding result is “binds”.
